This is an account of results in patent publication US11180770B2, “HPPD variants and methods of use” (BASF Agricultural Solutions Seed US LLC, priority 2017, dated 2021).

The data set relates to HPPD polypeptides. As to the kind of experiment: coupled HPPD activity assay: turnover and residual turnover in crude extracts. The following applies: for Residual turnover [%]: 100 μM Cmpd. 1, signal change with inhibitor divided by signal change without inhibitor; for Turnover: absence of Cmpd. 1, kinetic changes in absorbance (OD) at 320 nm, 30 min; for Turnover / Residual turnover: high substrate concentration; for Residual turnover: presence of 100 μM Cmpd. 1, changes in absorbance (OD) at 320 nm. The class given is biochemical, Pseudomonas fluorescens. As for the experimental part:
The activity of HPPD polypeptides was determined in absence or presence of HPPD inhibitors using the coupled HPPD activity assay (FIG. 1).
For the determination of the residual activity, the apparent kinetic constant (kapp) of the determined substrate conversion was measured as kinetic changes in absorbance (OD) at 320 nm in a coupled assay, in that homogentisate (HGA) formed by HPPD from HPP is directly converted into the well absorbing molecule maleylacetoacetate (MAA) by a second enzyme homogentisate dioxygenase (HGD), applied in excess uniformly in all assays (see FIG. 1). The measurements were performed in 384 micro titer plates (Greiner Bio-One GmbH, Frickenhausen, Germany) by plate readers (Tecan infinite M1000 or M1000PRO, Tecan, Männedorf, Switzerland). The kcat/kM ratio of an enzymatic activity is proportional to the apparent kinetic constant kapp and is proportional to kcat/kM*[E] ([E]=enzyme concentration). […] As both kapp measurements in the presence and absence of inhibitor were performed by use of the identical enzyme sample, crude or purified, and thereby at the same enzyme concentration, the enzyme concentration eliminates from the calculation of residual activity and the ratio of both kapp directly indicates the change of kM due to the inhibition.
The assay solution used for determination of residual activities in raw HPPD polypeptide samples was composed by 200 mM sodium phosphate (Merck, Darmstadt, Germany, pH 7.0), 5 mM MgCl2 (Merck, Darmstadt, Germany), 20 mM ascorbate (Sigma-Aldrich, St. Louis, USA), 1 mM DTT (Sigma-Aldrich, St. Louis, USA), 0.1% Pluronic F-68 (Sigma-Aldrich, St. Louis, USA), 40 μM FeSO4 (Sigma-Aldrich, St. Louis, USA), about 8 mg/ml purified HGD and 500 μM HPP from a 1 M stock solution in DMSO (Sigma-Aldrich, St. Louis, USA) and equilibrated for 20 min on ice. For every HPPD polypeptide sample two assays were performed in quadruplets, whereby 5 μl of HPPD polypeptide sample were mixed firstly with 5 μl buffer (1×BugBuster®; (Merck, Darmstadt, Germany); in 140 mM Tris, pH 7.8, with 1:25000 diluted BNase®; Qiagen, Hilden, Germany)) or 5 μl inhibitor diluted in the same buffer from a 0.1 M stock solution in DMSO (200 μM resulting in 100 μM in the HPPD polypeptide/inhibitor sample) in the reference and inhibition assay, respectively, and subsequently with 10 μl assay solution. The change in absorbance at 320 nm was followed in 1 min intervals for 30 min. The kapp values were calculated as signal slope over time in the early phase of the kinetic reaction, usually for the first 5-10 minutes of the measurements. Additionally and according to the calculated residual activity, the total conversion, i.e. the absolute change in signal, in the 30 min timeframe was monitored as measure of turnover, and a residual turnover was calculated by dividing the change in signal in the presence of inhibitor by the change in signal in the reference sample without inhibitor.
Residual turnover were determined according to Example 3 by measuring total change in signal in the presence and absence of Cmpd. 1 (2-chloro-3-(methylsulfanyl)-N-(1-methyl-1H-tetrazol-5-yl)-4-(trifluoromethyl)benzamide). For each mutant HPPD polypeptide, the total change in signal without HPPD inhibitor herbicides served for normalization of the total change in signal in the presence of the herbicide.

B1: 62 (protein)
chain: MADLYENPMGLMGFEFIEFASPTPGTLEPIFEIMGFTKVATHRSKNVHLYRQGEINLILNNEPNSIASYFAAEHGPSVCGMAFRVKDSQKAYNRALELGAQPIHIDTGPMELNLPAIKGIGGAPLYLIDRFGEGSSIYDIDFVYLEGVERNPVGAGLKVIDHLTHNVYRGRMVYWANFYEKLFNFREARYFDIKGEYTGLTSKAMSAPDGMIRIPLNEESSKGAGQIEEFLMQFNGEGIQHVAFLTDDLVKTWDALKKIGMRFMTAPADSYYEMLEGRLPDHGEPVDQLQARGILLDGSSVEGDKRLLLQIFSETLMGPVFFEFIQRKGDDGFGPHSFKVLFESMERDQVRRGVLTAD
modifications: mutant HPPD polypeptide
On to B1, for which the “Residual turnover [%]” value was determined as 37%, the Turnover is on record as 0.308 and the Residual turnover is on record as 0.115.

B2: 63 (protein)
chain: MADLYENPMGLMGFEFIEFASPTPGTLEPIFEIMGFTKVATHRSKNVHLYRQGEINLILNNEPNSIASYFAAEHGPSVCGMAFRVKDSQKAYNRALELGAQPIHIDTGPMELNLPAIKGIGGAPLYLIDRFGEGSSIYDIDFVYLEGVERNPVGAGLKVIDHLTHNVYRGRMVYWANFYEKLFNFREARYFDIKGEYTGLTSKAMSAPDGMIKIALNEESSKGAGQIEEFLMQFNGEGIQHVAFLTDDLVKTWDALKKIGMRFMTAPADSYYEMLEGRLPDHGEPVDQLQARGILLDGSSVEGDKRLLLQIFSETLMGPVFFEFIQRKGDDGFGPHSFKVLFEQIERDQVRRGVLTAD
modifications: mutant HPPD polypeptide
Turning to B2, the “Residual turnover [%]” value was found to be 68%, the Turnover came to 0.23 and the Residual turnover came to 0.156.

B3: 68 (protein)
chain: MADLYENPMGLMGFEFIEFASPTPGTLEPIFEIMGFTKVATHRSKNVHLYRQGEINLILNNEPNSIASYFAAEHGPSVCGMAFRVKDSQKAYNRALELGAQPIHIDTGPMELNLPAIKGIGGAPLYLIDRFGEGSSIYDIDFVYLEGVERNPVGAGLKVIDHLTHNVYRGRMVYWANFYEKLFNFREARYFDIKGEYTGLTSKAMSAPDGMIRIPLNEESSKGAGQIEEFLMQFNGEGIQHVAFLTDDLVKTWDALKKIGMRFMTAPADSYYEMLEGRLPDHGEPVDQLQARGILLDGSSVEGDKRLLLQIFSEQLMGPVFFEFIQRKGDDGFGPHSFKVLFEQMERDQVRRGVLTAD
modifications: mutant HPPD polypeptide
As to B3, the “Residual turnover [%]” value turned out to be 64%, the Turnover amounted to 0.346 and the Residual turnover is 0.223.

B4: 2 (protein)
chain: MADLYENPMGLMGFEFIEFASPTPGTLEPIFEIMGFTKVATHRSKNVHLYRQGEINLILNNEPNSIASYFAAEHGPSVCGMAFRVKDSQKAYNRALELGAQPIHIDTGPMELNLPAIKGIGGAPLYLIDRFGEGSSIYDIDFVYLEGVERNPVGAGLKVIDHLTHNVYRGRMVYWANFYEKLFNFREARYFDIKGEYTGLTSKAMSAPDGMIRIPLNEESSKGAGQIEEFLMQFNGEGIQHVAFLTDDLVKTWDALKKIGMRFMTAPPDTYYEMLEGRLPDHGEPVDQLQARGILLDGSSVEGDKRLLLQIFSETLMGPVFFEFIQRKGDDGFGPWNFAQLFESIERDQVRRGVLTAD
modifications: mutant HPPD polypeptide
Regarding B4, the Turnover is on record as 0.060 and the Residual turnover was 0.026.

B5: 64 (protein)
chain: MADLYENPMGLMGFEFIEFASPTPGTLEPIFEIMGFTKVATHRSKNVHLYRQGEINLILNNEPNSIASYFAAEHGPSVCGMAFRVKDSQKAYNRALELGAQPIHIDTGPMELNLPAIKGIGGAPLYLIDRFGEGSSIYDIDFVYLEGVERNPVGAGLKVIDHLTHNVYRGRMVYWANFYEKLFNFREARYFDIKGEYTGLTSKAMSAPDGMIRIPLNEESSKGAGQIEEFLMQFNGEGIQHVAFLTDDLVKTWDALKKIGMRFMTAPADSYYEMLEGRLPDHGEPVDQLQARGILLDGSSVEGDKRLLLQIFSETLMGPVFFEFIQRKGDDGFGPHSFKVLFEQMERDQVRRGVLTAD
modifications: mutant HPPD polypeptide
On to B5, for which the “Residual turnover [%]” value worked out at 47%, the Turnover came to 0.242 and the Residual turnover was 0.114.

B6: 69 (protein)
chain: MADLYENPMGLMGFEFIEFASPTPGTLEPIFEIMGFTKVATHRSKNVHLYRQGEINLILNNEPNSIASYFAAEHGPSVCGMAFRVKDSQKAYNRALELGAQPIHIDTGPMELNLPAIKGIGGAPLYLIDRFGEGSSIYDIDFVYLEGVERNPVGAGLKVIDHLTHNVYRGRMVYWANFYEKLFNFREARYFDIKGEYTGLTSKAMSAPDGMIRIPLNEESSKGAGQIEEFLMQFNGEGIQHVAFLTDDLVKTWDALKKIGMRFMTAPADSYYEMLEGRLPDHGEPVDQLQARGILLDGSSVEGDKRLLLQIFSERLMGPVFFEFIQRKGDDGFGPHSFKVLFEQMERDQVRRGVLTAD
modifications: mutant HPPD polypeptide
Take B6: the “Residual turnover [%]” value is 66%, the Turnover worked out at 0.36 and the Residual turnover amounted to 0.237.

B7: 66 (protein)
chain: MADLYENPMGLMGFEFIEFASPTPGTLEPIFEIMGFTKVATHRSKNVHLYRQGEINLILNNEPNSIASYFAAEHGPSVCGMAFRVKDSQKAYNRALELGAQPIHIDTGPMELNLPAIKGIGGAPLYLIDRFGEGSSIYDIDFVYLEGVERNPVGAGLKVIDHLTHNVYRGRMVYWANFYEKLFNFREARYFDIKGEYTGLTSKAMSAPDGMIKIPLNEESSKGAGQIEEFLMQFNGEGIQHVAFLTDDLVKTWDALKKIGMRFMTAPADSYYEMLEGRLPDHGEPVDQLQARGILLDGSSVEGDKRLLLQIFSETLMGPVFFEFIQRKGDDGFGPHSFKVLFEQMERDQVRRGVLTAD
modifications: mutant HPPD polypeptide
On to B7, for which the “Residual turnover [%]” value came out at 56%, the Turnover amounted to 0.336 and the Residual turnover is 0.187.

B8: 65 (protein)
chain: MADLYENPMGLMGFEFIEFASPTPGTLEPIFEIMGFTKVATHRSKNVHLYRQGEINLILNNEPNSIASYFAAEHGPSVCGMAFRVKDSQKAYNRALELGAQPIHIDTGPMELNLPAIKGIGGAPLYLIDRFGEGSSIYDIDFVYLEGVERNPVGAGLKVIDHLTHNVYRGRMVYWANFYEKLFNFREARYFDIKGEYTGLTSKAMSAPDGMIRIPLNEESSKGAGQIEEFLMQFNGEGIQHVAFLTDDLVKTWDALKKIGMRFMTAPADSYYEMLEGRLPDHGEPVDQLQARGILLDGSSVEGDKRLLLQIFSERLMGPVFFEFIQRKGDDGFGPHSFKVLFESMERDQVRRGVLTAD
modifications: mutant HPPD polypeptide
B8: the “Residual turnover [%]” value came out at 54%, the Turnover amounted to 0.327 and the Residual turnover was 0.177.

B9: 67 (protein)
chain: MADLYENPMGLMGFEFIEFASPTPGTLEPIFEIMGFTKVATHRSKNVHLYRQGEINLILNNEPNSIASYFAAEHGPSVCGMAFRVKDSQKAYNRALELGAQPIHIDTGPMELNLPAIKGIGGAPLYLIDRFGEGSSIYDIDFVYLEGVERNPVGAGLKVIDHLTHNVYRGRMVYWANFYEKLFNFREARYFDIKGEYTGLTSKAMSAPDGMIKIPLNEESSKGAGQIEEFLMQFNGEGIQHVAFLTDDLVKTWDALKKIGMRFMTAPADSYYEMLEGRLPDHGEPVDQLQARGILLDGSSVEGDKRLLLQIFSERLMGPVFFEFIQRKGDDGFGPHSFKVLFEQMERDQVRRGVLTAD
modifications: mutant HPPD polypeptide
On to B9, for which the “Residual turnover [%]” value was found to be 64%, the Turnover came to 0.335 and the Residual turnover is 0.215.
